Measurements: publication PMC3619129

Target: F-actin (human (endogenous in T cells)) (UniProt P60709)

Substance | mobile fraction (MF) of the EGFP-tagged ezrin by FRAP in human T cells, no pretreatment, with SDF-1 | mobile fraction (MF) of the EGFP-tagged ezrin by FRAP in human T cells, no pretreatment, without SDF-1 | mobile fraction (MF) of the EGFP-tagged ezrin by FRAP in human T cells, pretreated with latrunculin A (1 μM, 30 min), with SDF-1 | mobile fraction (MF) of the EGFP-tagged ezrin by FRAP in human T cells, pretreated with latrunculin A (1 μM, 30 min), without SDF-1
T567D ezrin-EGFP (from UniProt P15311 1-586) (natural protein) | 0.18 | 0.25 | 0.81 | 0.72
wild type (WT) ezrin-EGFP (from UniProt P15311 1-586) (natural protein) | 0.64 | 0.74 | 0.79 | 0.81
